Experimental data reported in patent US20160053277A1, “Compositions Having Dicamba Decarboxylase Activity and Methods of Use” (PIONEER HI-BRED INTERNATIONAL, INC., priority 2013, published 2016).

B1: 72 (protein)
chain: MADCPCCVSPKRRRLLGSVSAIAAGMMAGLPALAAQPSTAAAGTGKPLSIDIHAHYYSESFLGLLGGEGKQFGGHFFRNDDSFTFQTPAGGLGPLPMKFIDVEQRVRDMDNSGVDVQAISLSVPMVYWADRTLNAKLARAWNTAASDVHRKHPTRFVVLATLPMLNANDAIDELEFAAGLPGVRGIYMGTNINNRDLDDPLFSPIFKRIEQLNLPIFLHPQQTVGGARLADFYLSNLLGNPFDTAIAASHLILGGVLDKYPALHFSLPHAGGALPILVGRIDAGWSMRSETKRVAQKPSSYLRRFSYDTISHSGPTLDFLIRNIGADRLVLGSDYCFDMGYEQPVRFLDRLALPDDQKRMVVGGNAARLLNL
modifications: Cupriavidus necator
B2: 64 (protein, listed as Achromobacter piechaudii)
chain: MAIQKIDMHAHFFPPITRQEAAALDPVNAPWLRPDADGATGQIMAGEREFRPVDATLWDPALRIEQMDRHGVDVQILCATPIMFGYTYPARPAADWAARMNDLALEHCAYAPSRLKALAQVPLQDLELACQEASRARAAGHLGVQIGNHVGPRDLDDETLVQFLIHCANNDIPVLVHPWDMMTDGRMKKWMLPWLVSMPAETQLGILSLILSGAFERIPRSLKLCFAHGGGSFAYLLGRVDNAWRHRDIIRQDCPQLPSSYTDRFYTDSAVFDPRSLRLLIDVMGEDRVLLGSDYPYPLGEQEVGRLVAHAELVPEVQQKILFRNTMTFFGLQPGLQPGLQS
B3: 73 (protein, listed as Sphaerobacter thermophilus)
chain: MARIDAHAHAQPPEYLDALLASGRYESVRDAEGRIVVRERGSRFLTITPQMHHPEQRVAEMDEAGIDMQILSVTTPQVYFLQGQAAVDLARRCNDYLADIVRSYPTRFRALASVPLTADPDAAVREFVRCLDDLGMVGAIIGSNIDGRPIDDPAFDAFYAEADRRATTLFIHPMVPAGIEVMNPYALAPLVGFMFDTTLAVSRLIFSGFFERYPRVKVLVGHLGAAVPYLAGRLDIGWRSYSDCQGIPHPPTEYIRRLYLDTVSFHAPALRCALETVGPDRIVFGSDYPHVIGDVGGAIASIQQALPATTHDGVLGHTAAELFGVSA
B4: 59 (protein)
chain: MAPSVIDAHAHFLPGSLVTALRSRSDAPDIRTDSNGGESFGIYRTRMPYGRTYDALDVRLARMDELGVDRQILSLPGLFGIDSRPVSQALPLVRAFNDGVADLVRKHPDRFSGIAALPLADLDAAQEEYRRARGDLGLSGLILPGDTFVSVAAAERVRPLFELAATIGGLIFVHPGPLPDETGSAVDAPAPHTDSVVHRRVTVDIQNRMTEVMVTLALTDFLAPYPSVPVQVANLGGSLPFVIERMDHVYALRNPEAPPPSLSLRSLYVDAASLGPRAIALAAEVYGADRVLFGSDYPIFDDGRCLDAVRQTRLSPDARALIAGGNAARMLTQT
modifications: alpha proteobacterium
B5: 70 (protein, listed as Alicyclobacillus acidocaldarius)
chain: MAIEPNRAADVHTHFLPTEVLEFLKREPRIQVDLERRAPDKEPFLTVEGRWSFELKRMFVDFEAFASAYRQAGIGLALVSPLPQLFVYHLPAEMGAQVAEVYNDALRDVLAPHRERFRPLATLPLADPTAAARELERRMDEGFVGAIVGPGVGEALIGDEAFWPLWEVADARRAVLFLHPLLHADPRAARLMLPNLVGVPWETTLAAAHLVLSGLLDRYPGARVLLAHGGGFLPYQIGRIEQGYDVWPQVRGRLQDRPTAYLRRMFYDNVLWSDAALRCLIDVVGADRVLAGSDFPFDLSAWPPRPGADVSVLAGGSGREGRLS
B6: 69 (protein, listed as Microbacterium testaceum)
chain: MATSTEGQDVTDVHAHLLMPGLHAEVERRVPDEVQAAADLELRRNGLASLQASGRMIGERFPRLTDVRARLAAMDEQGVDRQWVSPSPNHFYPWANEGLATWASGEANRLIAEHVALAPDRLVGLGVVPLQHPHLVVDALDDAVLGRGLAGVEISSFAGDVELSDERLESFWARAAELRAVVFLHPFGCSLDERLDRFYLSNTVGQPTENAVALSHLIFSGVLDRHPGLRLIAAHGGGYLPTAIGRSDRAWRVRPEARGCAHAPSTYLSKLWFDTVVHDERALRWLVEAAGADRVLLGSDFPFDMGLDDPVAFVRGAGLQDAEVSGILGGNAAELLRTRVHA
B7: 68 (protein, listed as Hoeflea phototrophica)
chain: MAIIDAHTHTLCPAVNEKVAGTIKPDSVPYQRDMSPESKEQDHTQFPELKIMFNQVERRLADMARMGIDRQVIAPAPGQQHYWAEPKLLAEISALQNDHVAELVARAPDRFAGIGTLPMTDPDAAVAEITRATRELGLRVFQIDSRVMERELSDASLDPIYAALEAAGAGLMIHPLGFSNGERLTPFFMVNSVAQPLEELLAFNHLVFGGVLDRFPKLKVYIAHGGGFAPFYIGRFDHAWKVRPEVNRLTPSAPSTYLRRIYFDTCVYRTDHIETLVRTVGADRVMLGSDYPFDMGDTDPLGLLNACQGLSDDEKATISSKVAIDFFGLET
B8: 75 (protein, listed as Ectocarpus siliculosus)
chain: MAKIDSYTHFACPAFMDHLEAESGHPMVFRGLFSSIPELSDIDLRIRYMDEHGIDVHCLVPLPWLECEPGLHADEGKALEACRIANDEMARVVARFPDRLIGVALIPTTTEQAMIQETTRAVKELGMAGVALFVGPTAKPPDMACFEGLYRTCEELGAVVWMHPCRPQSYADYDSYKGEGSKHQIWNTFGWIYDTSVAMVHIALAGVFRRYPGLKVVTHHHGAMVPFFTARFDTQRRNFQEVEGDDLLEDLRLFYCDTATFGESAANIQQAIDFFGKSQVLFGTDTPMDMGTRGMFTRTTIASVEALGAAPEDKESFYAGNVLDMLGERFAGISGARGAVAARPKGDSTRIAASL
B9: 61 (protein, listed as Gordonia amarae)
chain: MATGAGSGVPSPADRVIVRSPGVIDVHAHAVLPMSLGCAGAAGPEIGYREDGSPFFRVGEYVLNGVRYEGSAFMDPEVRVAAMDAAGIGLQMISPNPITYFTRLDARSATDYARAHNDAIAEAAGRHPGRLVGAAQLPMQDVPAAIAELERSVRELGLVAAYIDTDIGDRTLDAPELDDFYSAAVELDVPVFIHPSPVGQEGPPDDTRLRRFDLDLLLGFSYDETLAVAALVFGGVLERHPALDVCLSHGGGTLAFVAGRFARAVAKPRAWVPEFLVENGIESYLRRLWLDTHVHSAGSLRLLIDTVGTDRLVFGTNFAGWDADGATEVDALGDLRETTTANAAHLLRLGRA
B10: 74 (protein, listed as Ramlibacter tataouinensis)
chain: MATVIDVHTHMFTTKWLELLKKEGGQYNIQTRPDGQQEIFRGNTPVVIPQKGHFDWKLRIQHMDQAGIDVSVVSLTCPNVYWGGEDVSVRAAREANDNVAQAQTAYPDRIRWFASLPWEYMATVIDVHTHMFTTKWLELLKKEGGQYNIQTRPDGQQEIFRGNTPVVIPQKGHFDWKLRIQHMDQAGIDVSVVSLTCPNVYWGGEDVSVRAAREANDNVAQAQTAYPDRIRWFASLPWEYPQRAVEELERSCAQGAAGVMVLANVAGRSLTDPLFAPVWAEIDRRALPVLVHPTDPPGVDLMDMTKFDLSWSVGFMFDTTLAITRMIFEGFFDRYPNLRIIASHGGGTLPYLVGRFEKGDEVELASRRQMKRKPTDYLRHIHYDCITYNLGALQYLISVVGAGQVMFGTDWPHWVHDTRGAFANTAQLPQEQTRAVRGANAQRLFKL
B11: 71 (protein, listed as Burkholderia dolosa)
chain: MARAGHRAARTRQSRPGDRTMTCSCCMSAGRRRVLGAFAALAGAPKGPRAASAAQPAAASKPTRGDATARNRHSRALLPGKASASWSATKASGSGGAFAWDDTTFTFRTPAGGLGPLPMKFIDVDARLRDMDASGVDVQALSLSVPMAYWGDRPFNAKLARAWNTAASRVHVRAPDRFVVLATLPMLDATDAIDELERASELPGVRGVYMGTNIDNRDLDDPRFAPVFARIEQLGLPVFLHPQQTVGGARLGDFYLSNLLGNPFDTAIAASHLILGGVLDRHPALHFTLPHAGGALPILVGRLDAGWTVRAETRRLAHQPSGYLRRFSYDTVSHSGPVLNFLIENVGIDRLVLGSDYCFDMGYEQPVRFLDRLDLTPDERAMVIGGNAGRLLRI
B12: 62 (protein)
chain: MAVGGKNFRDVTDQVWCPKKRIEDMDREGVDIQVLSPIPVTFSYWAKPEEAESMARIQNDFIAETVLAYPDRFVGLGTVPMQDGETAIREMERCITELNLHGIEIGTNVNGKNLDDPSFIEFFRMAEKWQVPIFIHPWETLGRDRMPHHNFMYTVGMPSETALAAATLIWSGIMEKFPRLKVCFAHGGGSFPYILPRLDQGWKVWPHLRLTTHPPSYYAKKFYFDSLNYDPINLKYMIERFGHEKIFMGSDYPFLLREVDPGKVIDETASLSEEQKAAMLGGNAAEFLNIDIKKRGVAYAESTNT
modifications: Bacillus thuringiensis serovar pulsiensis
B13: 60 (protein, listed as Catenulispora acidiphila)
chain: MARGFVRTAVVPGFWDAGWRGAGQPGGMRVDVHAHLFPAAYLDLLDDFRQDGGVGTREVRALGGGDGERELRLRLAAMDAVGVDVQLLSTCPQGPYTGDPTAAVEAARCANVALAQTVAQYPERLRALAALPLPHILASVDELNRAMEQDGMLGAAVGTSILGRPLSHPDFEPLFAALNRRKGVLFVHPIGESAGSPLMQASKLDRVIGYAAEVSTAILQLFQAGLTVKYPDIRIIAPHMGGYLPFLIQRLDRHRDWYLPKDAPSAGQLMRGIAYDTANPLPAALRLTAEVVGPERLLLGTDYPFEQGPSLRDHIEYILAAGLPEAQAKMIVDVNAADFLDMRSGAEQPPV

test: 14C assay with IPTG-induced recombinant E. coli cells: 14CO2 captured from [14C]-carboxyl-labeled dicamba; conditions: dicamba decarboxylation activity of the protein of the given SEQ ID NO; High / Low / No

| Molecule | Enzymatic Detection level |
| --- | --- |
| B1 | Low |
| B2 | Low |
| B3 | Low |
| B4 | No |
| B5 | Low |
| B6 | No |
| B7 | No |
| B8 | Low |
| B9 | No |
| B10 | Low |
| B11 | Low |
| B12 | No |
| B13 | No |

same assay, conditions: induced recombinant E. coli cells, [14C]-carboxyl-labeled dicamba, 14CO2 capture

| Molecule | Dicamba Decarboxylase Activity |
| --- | --- |
| B1 | Low |
| B2 | Low |
| B3 | Low |
| B4 | No |
| B5 | Low |
| B6 | No |
| B7 | No |
| B8 | Low |
| B9 | No |
| B10 | Low |
| B11 | Low |
| B12 | No |
| B13 | No |

test: Saturation mutagenesis of SEQ ID NO:109: dicamba decarboxylation activity of point mutants (carbon dioxide released); conditions: decarboxylation activity (carbon dioxide released) of point mutant compared with unmutated backbone protein; backbone SEQ ID NO: 109

| Molecule | Fold Activity |
| --- | --- |
| B1 | 1.2 |
| B2 | 1.8 |
| B3 | 1.2 |
| B4 | 0.9 |
| B5 | 1.7 |
| B6 | 1.3 |
| B7 | 1.3 |
| B8 | 1.7 |
| B9 | 2.4 |
| B10 | 1.4 |
| B11 | 1.5 |
| B12 | 1 |
| B13 | 1.6 |
